# Results as given in US20220000982A1 (Novo Nordisk, published 2022).
# *1 amine or outer side, *2 acyl side, *3 side chain or, on linkers, in order; H or OH if unused. Where no end group is shown, it is not given here. Side-chain parts run from the residue outwards. [ ]: non-standard residue; d: D form. The star is where a group is joined. C18 diacid = O=C(O)CCCCCCCCCCCCCCCCC(=O)*; γGlu = O=C(O)[C@H](CCC(=O)[*:2])N[*:1]; Nle = CCCC[C@H](N)C(=O)O; AEEA = NCCOCCOCC(=O)O; Aib = CC(C)(N)C(=O)O
# T1: human GIP receptor (human, UniProt P48546 22-466)
# T1 sequence (looked up): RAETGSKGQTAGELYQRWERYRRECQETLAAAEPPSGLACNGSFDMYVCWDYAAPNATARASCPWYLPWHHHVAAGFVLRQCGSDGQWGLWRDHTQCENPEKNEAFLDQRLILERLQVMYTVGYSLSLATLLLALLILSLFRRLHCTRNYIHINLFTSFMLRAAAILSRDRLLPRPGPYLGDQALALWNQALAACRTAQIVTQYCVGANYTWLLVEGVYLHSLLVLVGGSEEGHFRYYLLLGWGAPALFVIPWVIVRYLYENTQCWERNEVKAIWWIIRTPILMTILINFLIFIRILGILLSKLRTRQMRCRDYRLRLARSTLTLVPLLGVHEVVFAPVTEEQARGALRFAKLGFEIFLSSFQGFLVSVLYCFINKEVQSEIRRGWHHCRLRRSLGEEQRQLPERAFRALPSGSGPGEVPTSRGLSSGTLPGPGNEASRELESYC
# What was measured:
# Assay in all cases: cell-based or functional assay
# [1] = target: human glucagon receptor (human, UniProt P47871 26-477)
# human glucagon receptor, sequence (P47871 26-477): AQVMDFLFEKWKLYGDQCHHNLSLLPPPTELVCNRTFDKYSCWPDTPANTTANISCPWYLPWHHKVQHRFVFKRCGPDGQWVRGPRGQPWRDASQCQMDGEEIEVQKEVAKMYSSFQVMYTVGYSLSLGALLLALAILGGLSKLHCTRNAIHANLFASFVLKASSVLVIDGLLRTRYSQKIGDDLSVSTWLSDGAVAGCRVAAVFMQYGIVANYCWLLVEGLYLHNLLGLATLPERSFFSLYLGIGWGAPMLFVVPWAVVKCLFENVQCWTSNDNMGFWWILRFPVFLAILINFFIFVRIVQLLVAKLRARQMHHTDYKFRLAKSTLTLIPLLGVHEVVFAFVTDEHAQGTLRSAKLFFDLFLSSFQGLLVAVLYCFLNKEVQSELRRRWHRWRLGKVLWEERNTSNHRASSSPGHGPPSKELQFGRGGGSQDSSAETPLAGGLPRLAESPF
# [2] = target: human GLP-1 receptor (human, UniProt P43220 24-463)
# [3] = target: T1, human GIP receptor
Binder,"EC50, hGcg-R CRE Luc, 1% HSA (*) [1]","EC50, hGLP-1-R CRE Luc, 1% HSA (*) [2]","EC50, hGIP-R CRE Luc, 0.2% HSA [3]","EC50, hGcg-R CRE Luc, 0.2% HSA [1]","EC50, hGLP-1-R CRE Luc, 0.2% HSA [2]"
Y[Aib]EGTFISDYSIALDKIHQQDFVK([AEEA-AEEA-γGlu-C18 diacid])WLLAQKGKKNDWKHNITQ,> 100 nM,> 100 nM,0.056 nM,,
Y[Aib]EGTFISDYSIA[Nle]DKIRQQDFVK([γGlu-γGlu-γGlu-C18 diacid])WLLAQKGKEEDWKHNITQ,,,0.00447 nM,> 100 nM,> 100 nM
Y[Aib]EGTFISDYSIA[Nle]DKIHQQDFVK([γGlu-γGlu-γGlu-C18 diacid])WLLAQKGKEDDWKHNITQ,,,0.0059 nM,> 100 nM,> 100 nM
